In PMC8786865 (Nature Communications, 2022):
“And” between values parts separate entries of the source, which are not always exact repeats. Equal values may be shown once.

Key:
[1] = target: SARS-CoV-2 spike receptor-binding domain (RBD) (SARS-CoV-2, Wuhan-Hu-1, UniProt P0DTC2)
[2] = target: SARS-CoV-2 spike protein receptor-binding domain (RBD) (SARS-CoV-2, UniProt P0DTC2); assay: cell-based or functional assay
[3] = target: T1, SARS-CoV-2 spike receptor-binding domain (SARS-CoV-2, Wuhan-Hu-1, UniProt P0DTC2); assay: SPR; Carterra LSA array, HC200M chip; IgG captured on immobilised anti-human Fc; RBD as analyte, 7-point dilution series 300 nM to 411 pM in 1x HBSTE with 0.5 mg/mL BSA; association 5 min, dissociation 11 min; one-site binding model; two independent measurements; conditions: both partners purified
T1 construct: also called RBD; SARS-CoV-2 RBD

B1: H7 (antibody, V domains shown)
VH: EVQLVQSGAEVKKPGASVKVSCKVSGYSFTDHSIHWVRQAPGKGLEWMGGINPYTGDTIYAQKFQGRVTMTEDTSTDTAYMELSSLKSEDTAVYYCARDGYDFWSGSYGMDVWGQGAQVTVS
VL: DIQMTQSPSSVSASVGDRVTITCRASQDIGNHLAWYQQKPGKAPKLLIYGVSERPSGVPSRFSGSGSGTDFTLTISSLQPEDFANYYCHQYATYPWTFGDGTKVEIK
binding result [1]: binds

B2: H9 (antibody, V domains shown)
VH: EVQLVESGAEVKKPGASVKVSCKVSGYSFTDHSIHWVRQAPGKGLEWMGGINPYTGDTIYAQKFQGRVTMTEDTSTDTAYMELSSLKSEDTAVYYCARDAYSGSYPYYYYGMDVWGQGTTVTVSS
VL: DIQMTQSPSSVSASVGDRVTITCRASQNIDTFLAWYQQKPGKAPKLLIYASSNLASGVPSRFSGSGSGTDFTLTISSLQPEDFANYYCHQYATYPWTFGDGTKVEIK
binding result [1]: binds

B3: E4 (antibody, V domains shown)
VH: QVQLVQSGAEVKKPGASVKVSCKVSGYSFTDHSIHWVRQAPGKGLEWMGGINPYTGDTIYAQKFQGRVTMTEDTSTDTAYMELSSLKSEDTAVYYCARDGYDFWSGSYGMDVWGQGTLVTVSS
VL: DIQMTQSPSSVSASVGDRVTITCRASQDIGNHLAWYQQKPGKAPKLLIYASSNLASGVPSRFSGSGSGTDFTLTISSLQPEDFANYYCHQYATYPWTFGGGTKVEIK
binding result [1]: binds

B4: G9 (antibody, V domains shown)
VH: QVQLVQSGAEVKKPGASVKVSCKVSGYSFTDHSIHWVRQAPGKGLEWMGGINPYTGDTIYAQKFQGRVTMTEDTSTDTAYMELSSLKSEDTAVYYCARDGYGDYRGLYGMDVWGRGTTVTVSS
VL: DIQMTQSPSSVSASVGDRVTITCRASQDIGNHLAWYQQKPGKAPKLLIYASSNLASGVPSRFSGSGSGTDFTLTISSLQPEDFANYYCHQYATYPWTFGGGTKVEIK
binding result [1]: binds

B5: H5 (antibody, V domains shown)
VH: EVQLVQSGAEVKKPGASVKVSCKVSGYSFTDHSIHWVHQAPGKGLEWMGGINPYTGDTIYAQKFQGRVTMTEDTSTDTAYMELSSLKSEDTAVYYCARDGYYGSGTYYYYGMDVWGQGTTVTVSS
VL: DIQMTQSPSSVSASVGDRVTITCRASQSISTYLAWYQQKPGKAPKLLIYDASNRATGVPSRFSGSGSGTDFTLTISSLQPEDFANYYCLQYHNYPWTFGGGTKVEIK
binding result [1]: binds

B6: #41 (antibody, V domains shown)
VH: QVQLVQSGAEVKKPGASVKVSCKVSGYTSPATIHWVRQAPGKGLEWMGGISPYKGDTIYAQKFQGRVTMTEDTSTDTAYMELSSLKSEDTAVYYCAKDSYYYDSSGSGLGGGFDYWGQGTLVTVSS
VL: DIQMTQSPSSVSASVGDRVTITCRASRDISSYLAWYQQKPGKAPKLLIYGASTRASGVPSRFSGSGSGTDFTLTISSLQPEDFANYYCLQYSIYPWTFGGGTKVEIK
SARS-CoV-2 pseudovirus IC50 (neutralisation, HeLa-hACE2 cells); pair blocked: ACE2 with RBD [2]: 3.7 ng/mL

B7: #41 (antibody, V domains shown)
VH: QVQLVQSGAEVKKPGASVKVSCKVSGYTSPATIHWVRQAPGKGLEWMGGISPYKGDTIYAQKFQGRVTMTEDTSTDTAYMELSSLKSEDTAVYYCAKDSYYYDSSGSGLGGGFDYWGQGTLVTVSS
VL: DIQMTQSPSSVSASVGDRVTITCRASRDISSYLAWYQQKPGKAPKLLIYGASTRASGVPSRFSGSGSGTDFTLTISSLQPEDFANYYCLQYSIYPWTFGGGTKVEIK
Kd [3]: 0.257 nM and 0.333 nM
